Results published in patent US20210155689A1 (SHANGHAI PHARMAEXPLORER, published 2021).

T1: monkey LAG-3 on cells (HEK293-cLAG-3 stable cell line) (monkey, UniProt P18627 24-525 (human entry))
T1 construct: Full-length monkey (Chinese monkey) LAG-3 gene expressed on HEK293 cells
T1 chain: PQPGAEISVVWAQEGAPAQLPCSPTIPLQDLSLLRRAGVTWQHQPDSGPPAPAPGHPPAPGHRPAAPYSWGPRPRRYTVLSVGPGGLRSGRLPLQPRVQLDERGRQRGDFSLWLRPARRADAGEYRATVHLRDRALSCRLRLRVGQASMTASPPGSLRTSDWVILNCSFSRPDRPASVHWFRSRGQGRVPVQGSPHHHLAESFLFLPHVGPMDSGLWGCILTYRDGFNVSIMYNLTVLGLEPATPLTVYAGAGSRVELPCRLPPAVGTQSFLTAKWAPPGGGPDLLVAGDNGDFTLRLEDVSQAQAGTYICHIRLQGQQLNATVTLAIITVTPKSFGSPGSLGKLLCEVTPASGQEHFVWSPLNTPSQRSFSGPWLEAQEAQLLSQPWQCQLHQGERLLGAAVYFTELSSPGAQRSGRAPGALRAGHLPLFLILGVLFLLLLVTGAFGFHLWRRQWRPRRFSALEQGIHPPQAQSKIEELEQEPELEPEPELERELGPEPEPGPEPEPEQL


Biological target: T1, monkey LAG-3 on cells (HEK293-cLAG-3 …)
Test: FACS, HEK293-cLAG-3, antibody 0.000 nM
Text: The pIRES plasmid with the monkey-derived full-length gene was transfected into the HEK293 cell line to construct a HEK293 stable cell line containing monkey LAG-3 (herein referred to as HEK293-cLAG-3 stable cell line). The HEK293-hLAG-3 stable cell line and HEK293-cLAG-3 stable cell line were expanded in a T-75 cell culture flask to a 90% confluence. The medium was aspirated, and the cells were washed with HBSS (Hanks' Balanced Salt Solution) 1-2 times, then treated with a enzyme-free cell dissociation fluid (Versene solution: Life technology) and the cells were collected. The cells were washed with HBSS buffer for 1-2 times. After counted, the cells were diluted with HBSS to 1-2×10⁶ cells per ml, added with 1% goat serum blocking solution, incubated on ice for 20-30 minutes, and then washed with HBSS for 2 times by centrifugation. The collected cells were suspended in the FACS buffer (HBSS+1% BSA) to 2×10⁶ cells/ml, added as 100 microliters per well to a 96-well FACS reaction plate, added with 100 microliters per well of the antibody sample to be tested, incubated on ice for 1-2 hours. The plate was washed twice with the FACS buffer by centrifugation, added with 100 microliters of fluorescent (Alexa 488)-labeled secondary antibodies per well, and incubated on ice for 0.5-1.0 hours. The plate was washed 2-3 times with FACS buffer by centrifugation, added with 100 μl fixative solution (4% Paraformaldehyde) per well to suspend the cells. 5-10 minutes later, it was washed 1-2 times with FACS buffer by centrifugation. The cells were suspended with 100 microliters of FACS buffer, FACS (FACSCalibur, BD) was used for detection and the results were analyzed.

Binder	Mean fluorescence intensity
405B8H3 mouse-human chimeric antibody (antibody, V domains shown, also called mAb103-405B8H3) VH: QVQLQQSGAELVRPGASVTLSCKASGYTFTDYEMHWVKQTPVHGLEWIGATDPETGNSAYNQKFKGKAIMTADKSSSTAYMELRSLTSEDSAVYYCISTGWNDWGQGTSLTVSS VL: DIKMTQSPSSMYASLGERVTITCKASQDINSYLSWFQQKPGKSPKTLIYRADRLLDGVPSRFSGSGSGQDYSLTISSLEYGDMGIYYCLQYDEFPYTFGGGTKLEIK	2.9
409D4E10 mouse-human chimeric antibody (antibody, V domains shown, also called mAb112-409D4E10) VH: QVQLQQSGAELVRPGASVTLSCKASGNTFTDYEMHWVKQTPVHGLEWIGATDPETDNTAYNQKFKGKAILTTDKSSSTAYMELRSLTSEDSAVYYCITSGWNDWGQGTSLTVSS VL: DIKMTQSPSSMYASLGERVTITCKASQDINSYLSWFQQKPGKSPKTLIYRANRLLDGVPSRFSGSGSGQDYSLTISSLEYEDMGIYYCLQYNEFPYTFGGGTKLEIK	2.99
409B11E12 mouse-human chimeric antibody (antibody, V domains shown, also called mAb104-409B11E12) VH: QVQLQQSGAELVRPGASVTLSCKASGYTFTDYEMHWVKQTTVHGLEWIGATDPETSYSAYNQKFKGKAILTADKSSSTAYMELRSLTSEDSAVYYCIATGWNDWGQGTSLTVSS VL: DLKMTQSPSSMYASLGERVTITCKASQDINSYLSWFQQKPGKSPKTLIYRANRLLDGVPSRFSGSGSGQDYSLTISSLEYEDMGIYYCLQYDEFPYTFGGGTKLEIK	2.84
